From patent US20220372137A1 (OXFORD BIOTHERAPEUTICS, published 2022)
One block for each binder: values may come before it.

What was measured:
[1] = target: T1, human SLAMF6 expressed on the cell surface (Raji cells, human PBMCs, T cells) (human, UniProt Q96DU3 22-332); test: flow cytometry on SLAMF6-expressing Raji cells, goat anti-mouse secondary antibody
T1 construct: Endogenous SLAMF6 on human cells; also called NTB-A; CD352
T1 sequence: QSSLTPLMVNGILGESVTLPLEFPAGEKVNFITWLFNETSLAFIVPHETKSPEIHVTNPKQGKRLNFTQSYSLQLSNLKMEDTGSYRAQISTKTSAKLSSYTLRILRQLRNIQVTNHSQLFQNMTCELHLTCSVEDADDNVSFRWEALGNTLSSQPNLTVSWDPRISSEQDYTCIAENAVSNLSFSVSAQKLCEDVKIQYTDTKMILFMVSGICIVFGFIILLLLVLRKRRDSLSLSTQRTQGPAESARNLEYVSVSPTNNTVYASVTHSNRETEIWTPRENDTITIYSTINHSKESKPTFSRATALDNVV
Protocol: […] Raji cells were placed in each well of a 96 well plate and washed 1× with FACS buffer (DPBS, 2% FBS). The cells were pelleted by spinning for 5 min at 1200 rpm. The pellet was washed 1× with FACS buffer (DPBS, 2% FBS) and again pelleted by spinning for 5 min at 1200 rpm and resuspended in FACS buffer. The test antibody were diluted to 30 nM/l in FACS buffer and increasing amounts as shown in FIG. 4 added to each well which was incubated for 30 min on ice. The cells were then washed 1× with FACS buffer (DPBS, 2% FBS) and pelleted, washed and resuspended in FACS buffer. Secondary goat-anti-mouse antibody was diluted to 1 μg·ml and 100 μl added to each well the plate was incubated for 30 min on ice then washed 1× with FACS buffer (DPBS, 2% FBS). The cells were pelleted and resuspended in 200 ul FACS buffer. Samples were read using the Guava Easycyte Plus HT flow cytometer and results analysed using the Guava Cytosoft software suite.

[2] = target: T1, human SLAMF6 expressed on the cell …; test: cell-based or functional assay
[3] = target: T2, Antigen flowed over the chip in the Biacore experiment (SLAMF6, construct not stated) (Homo sapiens (Human), UniProt Q96DU3 22-226, limits assumed); test: SPR, Biacore T-200 at 25 °C; antibody captured on goat anti-human IgG, antigen flowed over
T2 sequence: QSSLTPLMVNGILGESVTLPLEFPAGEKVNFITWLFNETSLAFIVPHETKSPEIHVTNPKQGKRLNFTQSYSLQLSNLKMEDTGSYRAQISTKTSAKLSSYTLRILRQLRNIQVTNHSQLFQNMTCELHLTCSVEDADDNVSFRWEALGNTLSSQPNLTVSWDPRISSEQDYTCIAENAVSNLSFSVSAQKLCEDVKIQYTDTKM
Protocol: Flow cells 2, 3 and 4 of the CM5 chip were coated with maximum amounts 500 RU of goat anti-human IgG. Test Ab were captured on flow cells 2, 3 and 4. Flow cell 1 was kept blank and used for reference subtraction. Antigen was flowed over the chip. Binding of antigen to the antibodies was monitored in real time. From the observed kₒₙ and koff, KD was determined.

[4] = target: T1, human SLAMF6 expressed on the cell …; test: flow cytometry on human PBMCs pre-blocked with 300 nM SLAMF6 ECD-mIgG2a Fc fusion protein, goat anti-human IgG-RPE secondary antibody
Protocol: Cryopreserved human PBMCs were thawed and washed once by suspension in FACS buffer (DPBS with 2% FCS) followed by centrifugation for 5 minutes at 1200 rpm to pellet cells and discarding of supernatant (same method used for subsequent washes). The cells were dispensed into a 96-well assay plate at 100,000 cells per well in FACS buffer before being washed once more. Cells were then blocked with SLAMF6 ECD-mIgG2a Fc fusion protein at 100 nM or 300 nM for 1 hr for SLAMF6 receptor blocking in 100 μl FACS buffer on ice for 1 hour before being washed. Humanized Hu_1B3 antibody or human IgG1 Isotype control at top concentration of 10 nM and a titration by serial dilution of 1 in 3, was then added to the blocked PBMCs and the cells were incubated for 1 hr on ice before being washed twice. The secondary antibody, goat anti-human-IgG-RPE (Southern Biotech, Ref: 2040-05) at a concentration of 1 μg/mL in FACS buffer, was then applied to the treated cells for 30 minutes on ice. […] Mean fluorescence intensity for the secondary antibody was determined for each sample using an Attune NxT Flow Cytometer (ThermoFischer Scientific) in a 96-well plate format according to industry standard protocols, and the raw data was analyzed using FlowJo analysis software.

- EC50 (read off the curve) [1]: ~0.2 nM
B1: parental murine 1B3 antibody (antibody, V domains shown)
VH: QVQLKQSGAELVRPGTSVKVSCKASGYAFTNYLIEWVKQRPGQGLEWIGVINPGSGGTNYNEKFKDKATLTADKSSNTAYMQLSSLTSDDSAVYFCARRGWDYFDYWGQGTTLTVSS
VL: QIVLTQSPALMSTSPGEKVTMTCSASSSVSYIYWFQQKPGSSPKPWIYRTSNLASGVPARFSGSGSGTSYSLTISSMEAEDAATYYCQQWDNNPYTFGGGTKLEIK
notes: also called antibody 1B3; mouse 1B3

- Granzyme B release from activated T cells (plate-coated antibody plus OKT3, ELISA), EC50 [2]: 0.51 µg/mL
- upregulation of intracellular perforin in CD8+ T cells (flow cytometry), EC50 [2]: 0.44 µg/mL
- Ka [3]: 5.8e+08 M⁻¹
- Kd [3]: 1.72 nM
- koff [3]: 0.000932 s⁻¹
- kon [3]: 541000 M⁻¹ s⁻¹
- EC50 (read off the curve) [4]: ~0.4 nM
B2: humanised antibody Hu_1B3 (antibody, human IgG1, kappa, L234A L235A, V domains shown)
VH: QVQLVQSGAEVKKPGASVKVSCKASGYAFTNYLIEWVRQAPGQGLEWIGVINPGSGGTNYNEKFQGRVTLTADKSISTAYMELSRLRSDDTAVYYCARRGWDYFDYWGQGTLVTVSS
VL: DIQLTQSPSSLSASVGDRVTITCQASQDVSYIYWYQQKPGKAPKPWIYRTSNLATGVPSRFSGSGSGTDYTFTISSLQPEDIATYYCQQWDNNPYTFGQGTKLEIKR
notes: It was captured or detected with anti-human IgG and compared with a human IgG1 isotype control; also called humanised 1B3 antibody; humanized Hu_1B3 antibody
